The test deals with commercial Trail (TNF-related apoptosis-inducing ligand, TRAIL) (UniProt P50591). Nature of the test: cell-based or functional assay.
commercial Trail (TNF-related apoptosis-inducing ligand, TRAIL), sequence (P50591 114-281 limits assumed): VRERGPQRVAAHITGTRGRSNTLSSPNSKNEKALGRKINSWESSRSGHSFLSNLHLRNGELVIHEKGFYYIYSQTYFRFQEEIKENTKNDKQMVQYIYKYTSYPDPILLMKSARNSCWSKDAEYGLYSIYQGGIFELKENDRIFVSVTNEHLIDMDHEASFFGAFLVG

commercial DR5-Fc fusion protein (R&D Systems), sequence (O14763 52-182): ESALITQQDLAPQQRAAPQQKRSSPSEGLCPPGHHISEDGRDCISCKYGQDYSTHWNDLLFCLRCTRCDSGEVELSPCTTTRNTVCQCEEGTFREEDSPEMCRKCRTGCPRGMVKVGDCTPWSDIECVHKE

“commercial DR5-Fc fusion protein (R&D Systems) (from UniProt O14763 52-182)” showed an EC50 of blocking TRAIL-induced apoptosis of HepG2 cells of 0.0276 µg/mL and an EC50 of blocking Trail (at EC90) killing of Jurkat cells, MTS/PMS A490-A630 of 0.0718 µg/mL.
